The results in this text go back to PMC3625234, “The L-Cysteine Desulfurase NFS1 Is Localized in the Cytosol where it Provides the Sulfur for Molybdenum Cofactor Biosynthesis in Humans” (PLoS ONE, 2013).

Assay [1] addresses MOCS3-RLD (purified) (human). Put plainly: SPR; Biacore T200, CM5 chip, target immobilized by amine coupling (400–600 RU), 25°C, 30 µL/min, 20 mM phosphate, 150 mM NaCl, 0.005% Tween 20, pH 7.4; analytes 0.31–10 µM; global fit, 1:1 binding, mean of 3 measurements. A general note: SPR reads the build-up and loss of mass on a sensor chip optically.
In assay [2] the target is ECFP-MOCS3-RLD fusion (human). Put plainly: FRET or BRET; time-gated FLIM-FRET in transiently transfected HeLa cells; ECFP donor lifetime (long component τ1 of a bi-exponential fit) with EYFP acceptor; N = 30–42 cells. Background: Bioluminescence resonance energy transfer reports proximity on the nanometre scale.
The target of assay [3] is T1, NFS1Δ1-55^C381A/ISD11 complex (human, UniProt Q9Y697 56-457; Q9HD34 1-91, C381A).
T1 construct: L-cysteine desulfurase NFS1, human, without residues 1-55, with C381A; ISD11, human; without ISD11 it precipitated; source: E. coli BL21(DE3), co-expressed (pUMT13 and pZM4), purified
Put plainly: SPR; Biacore T200, CM5 chip, target immobilized by amine coupling (400–600 RU), 25°C, 30 µL/min, 20 mM phosphate, 150 mM NaCl, 0.005% Tween 20, pH 7.4; analytes 0.31–10 µM; global fit, 1:1 binding, mean of 3 measurements. The following applies: both partners purified.

The next assay deals with T2, NFS1Δ1-55/ISD11 complex (human, UniProt Q9Y697 56-457; Q9HD34 1-91).
T2 construct: L-cysteine desulfurase NFS1, human, without residues 1-55; ISD11, human; source: E. coli BL21(DE3), co-expressed (pZM2 and pZM4), purified
The assay is described as above. The following applies: both partners purified.

T1 sequence (Q9Y697 56-457 C381A, chain 1 of 2): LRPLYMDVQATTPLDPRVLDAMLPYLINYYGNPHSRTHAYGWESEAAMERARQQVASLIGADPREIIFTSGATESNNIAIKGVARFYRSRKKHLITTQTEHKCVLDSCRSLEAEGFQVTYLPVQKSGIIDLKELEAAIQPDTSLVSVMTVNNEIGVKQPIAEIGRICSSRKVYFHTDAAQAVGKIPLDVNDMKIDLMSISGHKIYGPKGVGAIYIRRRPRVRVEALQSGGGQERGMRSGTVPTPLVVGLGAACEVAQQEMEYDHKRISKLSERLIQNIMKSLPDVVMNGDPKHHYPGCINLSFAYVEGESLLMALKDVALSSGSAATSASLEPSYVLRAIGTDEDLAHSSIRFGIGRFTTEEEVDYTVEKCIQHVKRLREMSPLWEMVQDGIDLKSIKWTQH
T1 sequence (Q9HD34 whole entry, chain 2 of 2, the tested form may be a part): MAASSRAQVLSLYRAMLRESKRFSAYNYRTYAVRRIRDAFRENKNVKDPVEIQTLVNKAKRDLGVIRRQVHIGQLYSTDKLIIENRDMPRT
T2 sequence (Q9Y697 56-457, stated change not applied, chain 1 of 2): as the sequence (Q9Y697 56-457 C381A, chain 1 of 2) above, with A326C counted along it
T2 sequence (Q9HD34 whole entry, stated change not applied, chain 2 of 2, the tested form may be a part): as the sequence (Q9HD34 whole entry, chain 2 of 2, the tested form may be a part) above

As a reminder, the Kd is the constant that tells how readily two partners part at equilibrium. In assay [1], “NFS1Δ1-55 (purified) (from UniProt Q9Y697 56-457) (domain or fragment)” yielded a dissociation constant (Kd) of 36 nM. “EYFP-NFS1Δ1-55 fusion (from UniProt Q9Y697 56-457) (domain or fragment)”: in assay [2], the ECFP donor lifetime τ1 was found to be 2.9 ns and the reduction of the ECFP donor lifetime amounted to 17%. As for “NFS1Δ1-55/ISD11 complex (from UniProt Q9Y697 56-457; Q9HD34 1-91)”, in assay [1], the Kd is 166 nM. Still for that read-out and setting: to “NFS1Δ1-55^C381A/ISD11 complex (from UniProt Q9Y697 56-457; Q9HD34 1-91)” belongs 241 nM.

B1: MOCS3 purified after expression in Sf9 cells (enzyme, human, UniProt O95396 1-460, looked up)
chain: MASREEVLALQAEVAQREEELNSLKQKLASALLAEQEPQPERLVPVSPLPPKAALSRDEILRYSRQLVLPELGVHGQLRLGTACVLIVGCGGLGCPLAQYLAAAGVGRLGLVDYDVVEMSNLARQVLHGEALAGQAKAFSAAASLRRLNSAVECVPYTQALTPATALDLVRRYDVVADCSDNVPTRYLVNDACVLAGRPLVSASALRFEGQITVYHYDGGPCYRCIFPQPPPAETVTNCADGGVLGVVTGVLGCLQALEVLKIAAGLGPSYSGSLLLFDALRGHFRSIRLRSRRLDCAACGERPTVTDLLDYEAFCGSSATDKCRSLQLLSPEERVSVTDYKRLLDSGAFHLLLDVRPQVEVDICRLPHALHIPLKHLERRDAESLKLLKEAIWEEKQGTQEGAAVPIYVICKLGNDSQKAVKILQSLSAAQELDPLTVRDVVGGLMAWAAKIDGTFPQY
notes: MOCS3, human; no tag is named here; also called pMMC30; source: Sf9 cells, purified
On to B1, for which the results for the Kd (in assay [3]; with NFS1Δ1-55/ISD11 complex) were 218 nM and 119 nM, respectively.
